This is an account of results in publication PMC2172305.

This assay deals with Crk (UniProt P46108). The assay is described as follows: anti-Flag co-IP, anti-HA blot. The following applies: reference: cells infected with noninvasive Shigella; sites Y421,Y466,Y482.

“cortactin (from UniProt Q60598) cells infected with invasive Shigella”: the fold change entry is “stronger; reference 1”.
